Data reported in patent US20240327530A1 (ICHNOS SCIENCES, published 2024).
Where a chain is given by its changes, count along the chain named.

What was measured:
[1] = target: T1, Cynomolgus IL-1RAP on normal cynomolgus dermal fibroblasts (cynomolgus monkey, UniProt P59822 21-570 (rhesus entry)); assay: flow cytometry on normal cynomolgus fibroblasts, nonlinear sigmoidal regression
T1 construct: Endogenous protein on cells; also called Cyno IL-1RAP
T1 sequence: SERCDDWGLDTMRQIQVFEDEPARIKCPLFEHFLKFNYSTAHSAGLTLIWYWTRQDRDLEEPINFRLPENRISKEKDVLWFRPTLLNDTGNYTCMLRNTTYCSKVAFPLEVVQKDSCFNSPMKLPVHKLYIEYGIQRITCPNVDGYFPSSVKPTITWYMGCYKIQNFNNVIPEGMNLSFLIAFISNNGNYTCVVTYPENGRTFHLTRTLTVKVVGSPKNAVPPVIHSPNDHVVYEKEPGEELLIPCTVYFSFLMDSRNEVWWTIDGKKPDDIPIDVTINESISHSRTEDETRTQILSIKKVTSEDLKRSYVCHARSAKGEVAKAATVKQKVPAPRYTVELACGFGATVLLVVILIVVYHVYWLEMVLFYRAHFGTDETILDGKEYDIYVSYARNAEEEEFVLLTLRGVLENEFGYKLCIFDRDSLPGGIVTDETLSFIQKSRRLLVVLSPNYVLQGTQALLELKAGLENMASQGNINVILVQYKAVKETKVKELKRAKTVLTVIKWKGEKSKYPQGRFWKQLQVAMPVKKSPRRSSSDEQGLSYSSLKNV
Procedure: (§1) Bound antibodies were detected with a monoclonal anti-human IgG PE-Cyanine7 secondary antibody. The graphs show the nonlinear sigmoidal regression binding curves (Relative Geometric Mean Fluorescence Intensity) for each cell lines. Each data point is a measurement for a given cell line. Multiple independent experiments were performed across several donors (HaCaT and HaCaT IL-1RAP KO: 4 and 3 independent experiments; Human Dermal Fibroblasts: 2 independent experiments—total of 5 donors; Human Neutrophil: 2 experiments—total of 6 donors; Cyno Dermal Fibroblasts: 2 independent experiment—total of 4 donors).
In brief, cells were harvested, counted, and plated at 50,000 cells/well in a 96-well round-bottom plate. The plate was centrifuged at 350 g for 3 minutes and the cells were resuspended in 50 μl of FACS® buffer (PBS (1×)+2.5% FCS+2 mM EDTA+0.05% NaN₃) containing various concentrations (ranging from 50 to 0.00003 μg/ml) of either anti-human IL-1RAP_candidate_1 or Isotype control_5 antibodies. […] The cells were gated based on size on FSC vs SSC and analyzed for PE-Cyanine7-geometric mean (geomean) fluorescence intensity using FLOWJO® software. Finally, relative geomean fluorescence intensity was calculated by subtracting fluorescence of anti-human IL-1RAP_candidate_1 per fluorescence of Isotype control_5. […]

[2] = target: T2, Human IL-1RAP, membrane-bound on human cells (HaCaT, dermal fibroblasts, neutrophils, PBMC, whole blood) (human, UniProt Q9NPH3 21-570); assay: flow cytometry on human neutrophils, anti-human IgG PE-Cyanine7, relative geometric MFI (isotype subtracted)
T2 construct: Endogenous protein on cells
T2 sequence: T1 sequence with F183L, P273T, T326K, Q473R
Procedure: as §1, with “A dose-response of anti-human IL-1RAP_candidate_1 (●) or Isotype control_5 (▪) was incubated with various cell lines and cell types. Bound” for “Bound”
In brief, cells were harvested, counted, and plated at 50,000 cells/well in a 96-well round-bottom plate. […] The cells were gated based on size on FSC vs SSC and analyzed for PE-Cyanine7-geometric mean (geomean) fluorescence intensity using FLOWJO® software. Finally, relative geomean fluorescence intensity was calculated by subtracting fluorescence of anti-human IL-1RAP_candidate_1 per fluorescence of Isotype control_5. […]

Kd [1]: 1.55 nM | EC50 (read off the curve) [2]: ~0.2 µg/mL
B1: Anti-IL-1RAP-C8-RecC-ES-IgG1LALA (antibody, V domains shown)
VH: QVQLVQSGAEVKKPGSSVKVSCKASGSPAEPYAIQWVRQAPGQGLEWMGYIIPSLGGYDYAQKFQGRVTITADESTSTAYMELSSLRSEDTAVYYCARGQTLYESGRQFDIWGQGTLVTVSS
VL: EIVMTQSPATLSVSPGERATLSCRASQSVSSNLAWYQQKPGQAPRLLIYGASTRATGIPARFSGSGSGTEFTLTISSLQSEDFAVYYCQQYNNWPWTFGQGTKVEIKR
notes: also called ISB 880-C8-recC-ES
